Where two headings read alike, the source gives them in different places.
B1: SEP3ΔC, C-terminally truncated SEP3, in vitro translated (domain or fragment)
chain: MGRGRVELKRIENKINRQVTFAKRRNGLLKKAYELSVLCDAEVALIIFSNRGKLYEFCSSSSMLRTLERYQKCNYGAPEPNVPSREALAVELSSQQEYLKLKERYDALQRTQRNLLGEDLGPLSTKELESLERQLDSSLKQIRALRTQFMLDQLNDLQSKERMLTETNKTLRLRLADGYQMPLQLNPN
modifications: 35S-methionine in some experiments

Legend:
Experiment in all cases: native gel or EMSA
[1] = molecular target: …3 (SEP3), full-length, in vitro translated (Arabidopsis thaliana) (UniProt O22456)
[2] = molecular target: …3 (SEP3), full-length, in vitro translated (Arabidopsis thaliana) (UniProt O22456); remark: listed apart in the source
native gel or EMSA [3] = molecular target: the molecule itself
native gel or EMSA [4] = molecular target: the molecule itself; remark: listed apart in the source

Molecule | stoichiometry N [1] | apparent Kd1/Kd2 (cooperativity of two dimers on DNA) [2] | stoichiometry N [2] | stoichiometry N (native gel or EMSA [3]) | apparent Kd1/Kd2 (cooperativity of two dimers on DNA) (native gel or EMSA [4])
…3 (SEP3), full-length, in vitro translated (from UniProt O22456 1-251) (natural protein) | 4 | 83 | 2 |  | 
B1 |  |  |  | 2 | 89

Reference: PMC2615621 (Nucleic Acids Research, 2008)
